Data: PMC5773536

Key:
[1] = molecular target: A3B4 subunit of glycinin accumulated in transgenic soybean seeds (post-translationally processed mature form) (Glycine max (soybean)); experiment: SEC; soluble extract of dry mature transgenic seeds on a Hi-Load 16/600 Superdex 200 pg column in potassium phosphate buffer (35 mM potassium phosphate, pH 7.6, 0.4 M NaCl), 1.0 mL/min; fractions analysed by SDS-PAGE and western blot with anti-A3B4 serum; size by comparison with molecular weight standards
[2] = molecular target: recombinant luminal domain of GmVSR (soybean vacuolar sorting receptor) (Glycine max (soybean)); experiment: SPR; GmVSR(LU) amine-coupled on a CM5 chip (1000-1200 RU), BIACORE2000; GST fusion proteins injected 180 s, eluted with salt buffer 180 s, 25 °C, 30 uL/min; control flow cell subtracted; three independent experiments

Molecule	stoichiometry N [1]	Kd [2] [nM]
A3B4 subunit of glycinin accumulated in transgenic soybean seeds (post-translationally processed mature form) (natural protein)	6	–
PQESQKRAVA [GST fused with the 10-residue C-terminal peptide of A1aB1b]	–	98
